Laboratory results: PMC2141769

Columns and labels:
[1] = target: EC0, mutant E-cadherin protein that completely lacks the cytoplasmic domain; assay: cross-linking
[2] = target: EΔC37, mutant E-cadherin polypeptide with COOH-terminal deletion of 37 amino acid residues; assay: co-IP
[3] = target: EΔC71, mutant E-cadherin polypeptide with COOH-terminal deletion of 71 amino acid residues; assay: co-IP

Chain of EC0, mutant E-cadherin protein that completely lacks the cytoplasmic domain (P09803 152-704, stated change not applied): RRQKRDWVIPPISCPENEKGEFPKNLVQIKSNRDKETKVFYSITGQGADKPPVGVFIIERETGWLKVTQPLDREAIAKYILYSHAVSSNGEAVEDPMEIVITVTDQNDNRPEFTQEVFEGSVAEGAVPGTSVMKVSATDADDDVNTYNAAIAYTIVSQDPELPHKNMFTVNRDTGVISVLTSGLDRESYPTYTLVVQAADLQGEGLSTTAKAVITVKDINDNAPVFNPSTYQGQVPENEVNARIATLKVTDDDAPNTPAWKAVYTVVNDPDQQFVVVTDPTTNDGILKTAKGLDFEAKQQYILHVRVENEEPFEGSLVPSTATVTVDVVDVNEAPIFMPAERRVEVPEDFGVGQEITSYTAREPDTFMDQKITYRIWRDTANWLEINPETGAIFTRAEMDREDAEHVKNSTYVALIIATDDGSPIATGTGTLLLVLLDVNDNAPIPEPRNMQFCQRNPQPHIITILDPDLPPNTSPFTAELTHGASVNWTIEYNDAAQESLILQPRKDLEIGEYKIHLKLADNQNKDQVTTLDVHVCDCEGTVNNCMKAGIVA

stoichiometry N [1]	amount of p120 coprecipitated, percent of EK cells [2] [%]	amount of p120 coprecipitated, percent of EK cells [3] [%]	Molecule
2			EC0, mutant E-cadherin protein that completely lacks the cytoplasmic domain (domain or fragment)
	10	10	p120 (natural protein) MDDSEVESTASILASVKEQEAQFEKLTRALEEERRHVSAQLERVRVSPQDANPLMANGTLTRRHQNGRFVGDADLERQKFSDLKLNGPQDHSHLLYSTIPRMQEPGQIVETYTEEDPEGAMSVVSVETSDDGTTRRTETTVKKVVKTVTTRTVQPVAMGPDGLPVDASSVSNNYIQTLGRDFRKNGNGGPGPYVGQAGTATLPRNFHYPPDGYSRHYEDGYPGGSDNYGSLSRVTRIEERYRPSMEGYRAPSRQDVYGPQPQVRVGGSSVDLHRFHPEPYGLEDDQRSMGYDDLDYGMMSDYGTARRTGTPSDPRRRLRSYEDMIGEEVPSDQYYWAPLAQHERGSLASLDSLRKGGPPPPNWRQPELPEVIAMLGFRLDAVKSNAAAYLQHLCYRNDKVKTDVRKLKGIPVLVGLLDHPKKEVHLGACGALKNISFGRDQDNKIAIKNCDGVPALVRLLRKARDMDLTEVITGTLWNLSSHDSIKMEIVDHALHALTDEVIIPHSGWEREPNEDCKPRHIEWESVLTNTAGCLRNVSSERSEARRKLRECDGLVDALIFIVQAEIGQKDSDSKLVENCVCLLRNLSYQVHREIPQAERYQEAAPNVANNTGPHAASCFGAKKGKDEWFSRGKKPIEDPANDTVDFPKRTSPARGYELLFQPEVVRIYISLLKESKTPAILEASAGAIQNLCAGRWTYGRYIRSALRQEKALSAIADLLTNEHERVVKAASGALRNLAVDARNKELIGKHAIPNLVKNLPGGQQNSSWNFSEDTVISILNTINEVIAENLEAAKKLRETQGIEKLVLINKSGNRSEKEVRAAALVLQTIWGYKELRKPLEKEGWKKSDFQVNLNNASRSQSSHSYDDSTLPLIDRNQKSDKKPDREEIQMSNMGSNTKSLDNNYSTPNERGDHNRTLDRSGDLGDMEPLKGTTPLMQDEGQESLEEELDVLVLDDEGGQVSYPSMQKI
